How the values were obtained:
[1] = target: T1, glucagon fibrils (Homo sapiens, UniProt P01275); assay: Fibril incubation with plasma, quantitative MS/MS of bound proteins; assay type: binding; settings: 50:1 w/w plasma protein:fibril
T1 construct: fibrils of the peptide hormone glucagon
Description: (§1) Plasma and CSF solutions were centrifuged (40,000 g, 20 min) to remove any aggregates. The protein concentration was determined using 280 nm absorbance assuming 1 Abs = 1 mg/mL. […] Control samples (without fibril material) were prepared similarly. All samples were incubated at room temperature for one hour under gentle agitation. Fibrils and fibril-bound proteins were pelleted by centrifugation at 17,000 g for 30 minutes. The supernatant (175 μL) was removed and the aggregate was re-suspended in 175 μL PBS and pelleted again before further preparation for gel analysis and spin-filter assisted digest for quantitative MS/MS.
(§2) The fibril-protein pellets were transferred to spin-filters (0.22 μm), washed twice in PBS (100 μL) and once in 1 M NaCl (100 μL). The fibrils and fibril-bound proteins were dissolved by one-hour incubation in 100 μL 6 M guanidinium chloride followed by elution from the spin-filter. The eluted proteins were loaded onto a 3 kDa MWCO filter unit for filter-assisted unfolding, reduction, alkylation, and trypsin digestion. In brief, samples were washed twice in 8 M urea, once in 8 M urea with 50 mM DTT, once in 8 M urea with 50 mM iodoaceteamide, and twice in 8 M Urea. The filter units were dried by centrifugation (14,000 g in 30 minutes) after every addition. Trypsin digestion was carried out with 0.25 μg sequencing grade trypsin from Sigma Aldrich in 50 mM ammonium bicarbonate overnight at 37 °C. The tryptic peptides were collected by centrifugation, acidified with TFA (0.1%) and micro-purified using POROS R2 column material (Applied Biosystems) packed in P200 pipette tips (Sarstedt).
(§3) LC-MS/MS analyses were performed on an EASY-nLC II system (Thermo Fisher Scientific) connected to a TripleTOF 5600+ mass spectrometer (Sciex) equipped with a NanoSpray III source (Sciex) and operated under Analyst TF 1.6.0 control.
(§4) The micro-purified tryptic peptides were dissolved in 0.1% formic acid, injected and trapped on an in-house packed trap column (2 cm × 100 μm I.D) with RP ReproSil-Pur C18-AQ 3 μm resin (Dr. Maisch GmbH). Peptides were eluted from the trap column and separated on a 15 cm analytical column (75 μm i.d.) packed in-house in a pulled emitter with RP ReproSil-Pur C18-AQ 3 μm resin (Dr. Maisch GmbH). Elution from the analytical column was performed with a linear gradient from 5% to 35% phase B (90% acetonitrile with 0.1% formic acid) over 20 min for protein identification and 50 min for quantitative analysis, respectively.
(§5) All samples were analysed three times, yielding nine MS/MS experiments for each fibril for both plasma and CSF. For the area-based extracted ion chromatogram (XIC) quantification, the acquisition method was set up as an information-dependent acquisition (IDA) experiment collecting up to 25 MS/MS spectra in each 1.6 sec cycle using an exclusion window of 6 sec.
(§6) XIC quantification was based on the average ion intensity of the three most abundant peptides for each protein. Only proteins quantified in at least four out of nine MS/MS experiments per fibril were included in the quantification. The total ion scores were visualized after grouping the proteins according to function (Figure S11).
(§7) For each MS/MS experiment, the ion intensities of the individual proteins were normalized to the total ion intensity of that MS/MS experiment to achieve a relative protein composition. The contribution of each protein was averaged over all nine MS/MS experiments (Tables 1 and 2).

[2] = system: T2, FAS4-AD aggregates; assay: Fibril incubation with CSF, quantitative MS/MS of bound proteins; assay type: binding, human; design: key to Identification status of CSF protein bound: FAS4-AD: *: Identified, but not quantified; —: Not identified in any of the samples; settings: symbol cells
T2 construct: aggregates of a mutated version of the FAS1-4 domain of TGFBIp

[3] = target: T3, C-36 fibrils (Homo sapiens, UniProt P01009); assay: Fibril incubation with plasma, quantitative MS/MS of bound proteins; assay type: binding; design: key to Identification status of plasma protein bound: C-36: *: Identified, but not quantified; —: Not identified in any of the samples; settings: for Identification status of plasma protein bound: C-36: symbol cells
T3 construct: the 36 residue C-terminal fragment of α1-antitrypsin (C-36)
T3 sequence (P01009 383-418 limits assumed): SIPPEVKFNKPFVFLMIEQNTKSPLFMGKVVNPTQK
Description: as §1, §2, §3, §4, §5, §6, §7

[4] = system: T2, FAS4-AD aggregates; assay: as above; assay type: binding, human; design: key to Identification status of plasma protein bound: FAS4-AD: *: Identified, but not quantified; —: Not identified in any of the samples; settings: for Identification status of plasma protein bound: FAS4-AD: symbol cells
Description: as §1, §2, §3, §4, §5, §6, §7

[5] = system: T4, Ab2 fibrils; assay: as above; assay type: binding, human; settings: 50:1 w/w plasma protein:fibril
T4 construct: Two structurally distinct fibrils of the Aβ(1–40) peptide associated with AD
Description: as §1, §2, §3, §4, §5, §6, §7

[6] = target: T1, glucagon fibrils; assay: Fibril incubation with CSF, quantitative MS/MS of bound proteins; assay type: binding; settings: 4:1 w/w CSF protein:fibril
[7] = system: T5, Ab1 fibrils; assay: Fibril incubation with plasma, quantitative MS/MS of bound proteins; assay type: binding, human; settings: 50:1 w/w plasma protein:fibril
T5 construct: Synthetic amyloid β peptide 1–40 was purchased from Caslo Aps (Lyngby, Denmark); purchased Caslo Aps (Lyngby, Denmark); host or cells: synthetic peptide
Description: Plasma and CSF solutions were centrifuged (40,000 g, 20 min) to remove any aggregates. The protein concentration was determined using 280 nm absorbance assuming 1 Abs = 1 mg/mL. […] Control samples (without fibril material) were prepared similarly. All samples were incubated at room temperature for one hour under gentle agitation. Fibrils and fibril-bound proteins were pelleted by centrifugation at 17,000 g for 30 minutes. The supernatant (175 μL) was removed and the aggregate was re-suspended in 175 μL PBS and pelleted again before further preparation for gel analysis and spin-filter assisted digest for quantitative MS/MS.
as §2, §3, §4, §5, §6, §7

[8] = target: T6, αSN fibrils (Homo sapiens, UniProt P37840); assay: Fibril incubation with CSF, quantitative MS/MS of bound proteins; assay type: binding; design: key to Identification status of CSF protein bound: αSN: *: Identified, but not quantified; —: Not identified in any of the samples; settings: for Identification status of CSF protein bound: αSN: symbol cells
[9] = system: T5, Ab1 fibrils; assay: as above; assay type: binding, human; settings: 4:1 w/w CSF protein:fibril
[10] = system: T4, Ab2 fibrils; assay: as above; assay type: binding, human; settings: 4:1 w/w CSF protein:fibril
[11] = target: T3, C-36 fibrils; assay: as above; assay type: binding; design: key to Identification status of CSF protein bound: C-36: *: Identified, but not quantified; —: Not identified in any of the samples; settings: for Identification status of CSF protein bound: C-36: symbol cells
[12] = target: T6, αSN fibrils; assay: Fibril incubation with plasma, quantitative MS/MS of bound proteins; assay type: binding; design: key to Identification status of plasma protein bound: αSN: *: Identified, but not quantified; —: Not identified in any of the samples; settings: for Identification status of plasma protein bound: αSN: symbol cells
Description: as §1, §2, §3, §4, §5, §6, §7

T1 sequence (P01275 53-81 limits assumed): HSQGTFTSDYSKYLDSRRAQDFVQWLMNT

Molecule	Relative composition of plasma proteins bound: Glucagon [1]	Identification status of CSF protein bound: FAS4-AD [2]	Identification status of plasma protein bound: C-36 [3]	Identification status of plasma protein bound: FAS4-AD [4]	Relative composition of plasma proteins bound: Ab2 [5]	Relative composition of CSF proteins bound: Glucagon [6]	Relative composition of plasma proteins bound: Ab1 [7]	Identification status of CSF protein bound: αSN [8]	Relative composition of CSF proteins bound: Ab1 [9]	Relative composition of CSF proteins bound: Ab2 [10]	Identification status of CSF protein bound: C-36 [11]	Identification status of plasma protein bound: αSN [12]	Relative composition of plasma proteins bound: C-36 ([3]; 50:1 w/w plasma protein:fibril)	Relative composition of plasma proteins bound: FAS4-AD ([4]; 50:1 w/w plasma protein:fibril)	Relative composition of CSF proteins bound: αSN ([8]; 4:1 w/w CSF protein:fibril)	Relative composition of CSF proteins bound: C-36 ([11]; 4:1 w/w CSF protein:fibril)	Relative composition of plasma proteins bound: αSN ([12]; 50:1 w/w plasma protein:fibril)
Histidine-rich glycoprotein (protein, UniProt P04196 19-525, looked up) Histidine-rich glycoprotein: VSPTDCSAVEPEAEKALDLINKRRRDGYLFQLLRIADAHLDRVENTTVYYLVLDVQESDCSVLSRKYWNDCEPPDSRRPSEIVIGQCKVIATRHSHESQDLRVIDFNCTTSSVSSALANTKDSPVLIDFFEDTERYRKQANKALEKYKEENDDFASFRVDRIERVARVRGGEGTGYFVDFSVRNCPRHHFPRHPNVFGFCRADLFYDVEALDLESPKNLVINCEVFDPQEHENINGVPPHLGHPFHWGGHERSSTTKPPFKPHGSRDHHHPHKPHEHGPPPPPDERDHSHGPPLPQGPPPLLPMSCSSCQHATFGTNGAQRHSHNNNSSDLHPHKHHSHEQHPHGHHPHAHHPHEHDTHRQHPHGHHPHGHHPHGHHPHGHHPHGHHPHCHDFQDYGPCDPPPHNQGHCCHGHGPPPGHLRRRGPGKGPRPFHCRQIGSVYRLPPLRKGEVLPLPEANFPSFPLPHHKHPLKPDNQPFPQSVSESCPGKFKSGFPQVSMFFTHTFPK	0.4 ± 0.0 % of total protein	—	—	—	1.8 ± 0.1 % of total protein	0.1 ± 0.0 % of total protein	2.5 ± 0.1 % of total protein	—	0.4 ± 0.1 % of total protein	0.6 ± 0.2 % of total protein	*	—					
Apolipoprotein A-IV: plasma/CSF protein bound to fibrils (protein, UniProt P06727 21-396, looked up) Apolipoprotein A-IV: EVSADQVATVMWDYFSQLSNNAKEAVEHLQKSELTQQLNALFQDKLGEVNTYAGDLQKKLVPFATELHERLAKDSEKLKEEIGKELEELRARLLPHANEVSQKIGDNLRELQQRLEPYADQLRTQVSTQAEQLRRQLTPYAQRMERVLRENADSLQASLRPHADELKAKIDQNVEELKGRLTPYADEFKVKIDQTVEELRRSLAPYAQDTQEKLNHQLEGLTFQMKKNAEELKARISASAEELRQRLAPLAEDVRGNLRGNTEGLQKSLAELGGHLDQQVEEFRRRVEPYGENFNKALVQQMEQLRQKLGPHAGDVEGHLSFLEKDLRDKVNSFFSTFKEKESQDKTLSLPELEQQQEQQQEQQQEQVQMLAPLES	1.9 ± 0.2 % of total protein	—			3.5 ± 0.5 % of total protein	0.5 ± 0.1 % of total protein	2.7 ± 0.1 % of total protein		1.2 ± 0.1 % of total protein	0.5 ± 0.0 % of total protein			2.4 ± 0.4 % of total protein	1.6 ± 0.2 % of total protein	1.5 ± 0.2 % of total protein	1.0 ± 0.1 % of total protein	3.8 ± 0.6 % of total protein
Ig γ -3 chain C region: plasma/CSF protein bound to fibrils (protein, UniProt P01860 1-446, looked up) Immunoglobulin heavy constant …: ASTKGPSVFPLAPCSRSTSGGTAALGCLVKDYFPEPVTVSWNSGALTSGVHTFPAVLQSSGLYSLSSVVTVPSSSLGTQTYTCNVNHKPSNTKVDKRVELKTPLGDTTHTCPRCPEPKSCDTPPPCPRCPEPKSCDTPPPCPRCPEPKSCDTPPPCPRCPAPELLGGPSVFLFPPKPKDTLMISRTPEVTCVVVDVSHEDPEVQFKWYVDGVEVHNAKTKPREEQYNSTFRVVSVLTVLHQDWLNGKEYKCKVSNKALPAPIEKTISKTKGQPREPQVYTLPPSREEMTKNQVSLTCLVKGFYPSDIAVEWESSGQPENNYNTTPPMLDSDGSFFLYSKLTVDKSRWQQGNIFSCSVMHEALHNRFTQKSLSLSPELQLEESCAEAQDGELDGLWTTITIFITLFLLSVCYSATVTFFKVKWIFSSVVDLKQTIIPDYRNMIGQGA	1.0 ± 0.1 % of total protein	—	*	—	1.1 ± 0.1 % of total protein	1.4 ± 0.5 % of total protein	1.0 ± 0.1 % of total protein	*	2.5 ± 0.1 % of total protein	3.0 ± 0.2 % of total protein	*	*					
